# Test results from paper PMC8716364, “A Redox-Sensitive Cysteine Is Required for PIN1At Function” (Frontiers in Plant Science, 2021).
# B1: Arabidopsis PIN1At, untagged recombinant protein (enzyme, Arabidopsis thaliana, UniProt Q9SL42 2-119, looked up)
# chain: ASRDQVKASHILIKHQGSRRKASWKDPEGKIILTTTREAAVEQLKSIREDIVSGKANFEEVATRVSDCSSAKRGGDLGSFGRGQMQKPFEEATYALKVGDISDIVDTDSGVHIIKRTA
# notes: Single cysteine, Cys69; the printed masses (12.3 kDa, 12,882.7 Da; theoretical 13,014.7 Da) fit the untagged protein; also called PAR1; PIN1At/PAR1; source: E. coli BL21 (DE3) with pSBET, pET12a, purified (ammonium sulfate, ACA44 gel filtration, DEAE-Sephacel)
# B2: Arabidopsis PIN1At, N-terminal His-tagged recombinant protein (enzyme, Arabidopsis thaliana, UniProt Q9SL42 1-119, looked up)
# chain: MASRDQVKASHILIKHQGSRRKASWKDPEGKIILTTTREAAVEQLKSIREDIVSGKANFEEVATRVSDCSSAKRGGDLGSFGRGQMQKPFEEATYALKVGDISDIVDTDSGVHIIKRTA
# notes: also called His-tagged PIN1At; not shown: His6, N-terminal, kept
# Experiments:
# [1] = target: Cys69 (UniProt position 69, TRVSDCSSAKR); assay: chemical modification; details: 25 °C; sodium citrate or phosphate buffer (concentration not stated); reduced (DTT-treated and desalted), free enzyme, monomer
# [2] = target: the molecule itself; assay: SEC-MALS; 76 μM (300 μg) reduced PIN1At incubated 30 min with 100 μM to 2.5 mM H2O2, 30 mM Tris-HCl pH 8.0, 200 mM NaCl, Superdex200 10/300; disulfide-bridged dimer
# [3] = target: the molecule itself; assay: non-reducing SDS-PAGE after alkylation with mPEG-maleimide; 20 μM reduced PIN1At with 25- or 100-fold excess H2O2 (500 μM or 2 mM), 30 min, TE buffer; one sample then 10 mM DTT 30 min; free thiols alkylated with 2 kDa mPEG-maleimide, non-reducing 15% SDS-PAGE
molecule,measurement,setting,value
"PIN1At (PAR1), peptidyl-prolyl cis-trans isomerase Pin1, single-domain parvulin (Arabidopsis thaliana)",pKa,[1],4.9±0.1
B1,stoichiometry N,[2],2
B2,binding result,[3],binds
